Three molecules from CN117751139A (YONGXIAN PHARMACEUTICAL CO LTD; UNIV AIX MARSEILLE; INST …, dated 2024) can be followed below.

The target in test [1] is T1, Nectin-1 extracellular domain Fc fusion recombinant protein (Nec1-VCC) (UniProt Q15223 31-355, limits assumed).
T1 construct: extracellular domain; also called Nectin-1-VCC-Fc; not shown: Fc part
T1 sequence (looked up): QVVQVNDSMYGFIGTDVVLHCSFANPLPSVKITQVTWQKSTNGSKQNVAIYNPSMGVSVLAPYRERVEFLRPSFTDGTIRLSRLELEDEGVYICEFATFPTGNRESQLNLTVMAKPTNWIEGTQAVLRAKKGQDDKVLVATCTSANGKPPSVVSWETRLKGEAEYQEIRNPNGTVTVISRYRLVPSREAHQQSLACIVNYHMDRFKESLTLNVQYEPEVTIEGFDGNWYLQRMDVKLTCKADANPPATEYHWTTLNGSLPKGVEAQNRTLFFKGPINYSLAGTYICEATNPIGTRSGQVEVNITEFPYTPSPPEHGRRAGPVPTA
The test can be described thus: ELISA, Nec1-VCC coated on plate, peroxidase-conjugated Ch-15A7.5. On the technique in general: In an ELISA, binding on a coated surface is turned into a signal by an enzyme label.

Test [2] deals with T2, Nectin-4 extracellular domain Fc fusion recombinant protein (Nec4-VCC) (human, UniProt Q96NY8 32-349).
T2 construct: extracellular domain; also called Nectin-4-VCC-Fc; not shown: Fc part
T2 sequence (looked up): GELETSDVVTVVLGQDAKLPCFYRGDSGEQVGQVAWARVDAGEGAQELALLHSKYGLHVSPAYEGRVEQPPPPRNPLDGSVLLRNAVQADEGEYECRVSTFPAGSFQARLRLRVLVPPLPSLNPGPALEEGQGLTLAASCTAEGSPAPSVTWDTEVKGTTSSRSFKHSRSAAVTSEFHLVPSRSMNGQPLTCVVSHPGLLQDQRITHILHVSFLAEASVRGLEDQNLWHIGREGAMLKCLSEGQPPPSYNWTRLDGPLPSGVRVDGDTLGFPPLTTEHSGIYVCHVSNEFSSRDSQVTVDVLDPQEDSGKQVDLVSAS
The test can be described thus: statement in the legend of the competition ELISA on coated Nec4-VCC.

Test [3] concerns the target T3, human Nectin-4 on CHO cells transfected with human Nectin-4 cDNA (human, UniProt Q96NY8 32-510).
T3 construct: whole, on cells
T3 sequence (looked up): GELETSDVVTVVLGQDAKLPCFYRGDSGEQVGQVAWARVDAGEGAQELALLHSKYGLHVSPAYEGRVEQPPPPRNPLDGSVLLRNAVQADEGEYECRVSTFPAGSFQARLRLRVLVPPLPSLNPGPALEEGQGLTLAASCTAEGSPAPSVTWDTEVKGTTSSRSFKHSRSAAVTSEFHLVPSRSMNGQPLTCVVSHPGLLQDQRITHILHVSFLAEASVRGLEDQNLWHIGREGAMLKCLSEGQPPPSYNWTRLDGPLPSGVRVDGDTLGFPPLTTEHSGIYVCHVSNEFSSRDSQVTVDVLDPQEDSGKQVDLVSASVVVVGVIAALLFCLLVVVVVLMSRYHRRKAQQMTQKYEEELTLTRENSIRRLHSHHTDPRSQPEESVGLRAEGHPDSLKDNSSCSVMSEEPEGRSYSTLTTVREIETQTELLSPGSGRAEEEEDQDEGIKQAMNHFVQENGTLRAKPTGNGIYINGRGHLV
The test can be described thus: flow cytometry competition on CHO cells with human Nectin-4; competitor Nec1-VCC. Background: Flow cytometry measures light scatter and fluorescence of single cells or particles in a stream.

Test [4] has as its target T4, human Nectin-4 with N-terminal Flag epitope tag, on transfected MDA-MB231 cells (human, UniProt Q96NY8 32-510).
T4 construct: whole, on cells; also called PVRL4; PRR4
T4 sequence (looked up): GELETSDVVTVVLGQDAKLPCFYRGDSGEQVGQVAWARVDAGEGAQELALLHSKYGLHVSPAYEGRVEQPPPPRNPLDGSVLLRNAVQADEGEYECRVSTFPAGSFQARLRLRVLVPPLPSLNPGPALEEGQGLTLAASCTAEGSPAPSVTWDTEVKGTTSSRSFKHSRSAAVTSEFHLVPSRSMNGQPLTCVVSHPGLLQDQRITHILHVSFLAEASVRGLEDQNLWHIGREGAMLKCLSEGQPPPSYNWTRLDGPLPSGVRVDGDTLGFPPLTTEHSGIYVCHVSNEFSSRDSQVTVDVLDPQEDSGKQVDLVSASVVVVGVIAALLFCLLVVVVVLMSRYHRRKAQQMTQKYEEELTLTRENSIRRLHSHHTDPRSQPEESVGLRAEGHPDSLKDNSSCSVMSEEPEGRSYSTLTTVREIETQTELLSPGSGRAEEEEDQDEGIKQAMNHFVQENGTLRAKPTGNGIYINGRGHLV
The test can be described thus: flow cytometry on MDA-MB231 cells transfected with N-terminally Flag-tagged Nectin-4.

Test [5] addresses T5, Nectin-4 expressed by normal differentiated human keratinocytes (NHEK) (human, UniProt Q96NY8 32-510).
T5 construct: whole, on cells; also called Nectin-4 on NHEK; keratinocyte Nectin-4
T5 sequence (looked up): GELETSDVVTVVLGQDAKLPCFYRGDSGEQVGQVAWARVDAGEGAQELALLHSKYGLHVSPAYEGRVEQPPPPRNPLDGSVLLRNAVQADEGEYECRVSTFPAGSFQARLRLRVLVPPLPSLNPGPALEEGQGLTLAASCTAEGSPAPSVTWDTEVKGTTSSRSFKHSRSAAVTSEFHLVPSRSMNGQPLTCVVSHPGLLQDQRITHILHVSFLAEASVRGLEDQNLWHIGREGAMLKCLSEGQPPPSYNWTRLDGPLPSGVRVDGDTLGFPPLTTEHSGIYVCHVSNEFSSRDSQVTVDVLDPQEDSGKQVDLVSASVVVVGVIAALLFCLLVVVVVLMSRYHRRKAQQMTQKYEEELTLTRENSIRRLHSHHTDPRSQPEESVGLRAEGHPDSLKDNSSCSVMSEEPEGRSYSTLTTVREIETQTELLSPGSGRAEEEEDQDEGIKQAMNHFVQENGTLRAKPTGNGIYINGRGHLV
The test can be described thus: flow cytometry on normal differentiated human keratinocytes (NHEK), 8 pM-33 nM; reference of the comparison.

B1: Ch-15A7.5 (antibody, V domains shown)
VH: EVKLVESGGGLVQPGGSRKLSCAASGFTFSNYGMAWVRQAPGKGPEWVAFISNLAYGINYADTVTGRFTISRENAKNTLYLEMRSLRSEDTAMYYCARGARATGWFAYWGQGTLVTVSA
VL: DIVMTQSQKFMSTSIGDRVSVTCKASQNVDTHVAWYQEKPGQSPKALIYSASYRYSGVPDRFTGSGSGTDFTLTISNVQSEDLADYFCQQYNSYPLTFGGGTKLEIK
notes: also called Ch-15A7.5 mAb; Ch-15A7 mAb
On to B1, for which the binding result in test [1] was “no binding (tested: 10nM)”.

B2: HA22 (enfortumab) (antibody, V domains shown)
VH: EVQLVESGGGLVQPGGSLRLSCAASGFTFSSYNMNWVRQAPGKGLEWVSYISSSSSTIYYADSVKGRFTISRDNAKNSLSLQMNSLRDEDTAVYYCARAYYYGMDVWGQGTTVTVSS
VL: DIQMTQSPSSVSASVGDRVTITCRASQGISGWLAWYQQKPGKAPKFLIYAASTLQSGVPSRFSGSGSGTDFTLTISSLQPEDFATYYCQQANSFPPTFGGGTKVEIK
notes: also called 恩弗妥单抗; HA22 mAb
In the case of B2, the binding result in test [2] was “binds”.

B3: Ch-5A12.2 (antibody, V domains shown)
VH: QIQLQQSGAELVKPGASVTLSCKTSGFTFNSMYISWLKQKPGQSLEWIAWIYAGTGGTRFNQKFTGKVQLTVDTSSSTAYMQFSSLTTDDSAIYYCAIRSGFVPMDYWGQGTSVTVSS
VL: SIVMTQTPKFLLVSAGDRVTITCKASQSVSNDVAWYQQKPGQSPKLLIYYASNRYTGVPDRFTGSGYGTDFTFTISTVQAEDLAVYFCQQDYSSPWTFGGGTKLEIK
notes: also called 5A12.2 mAb; chimeric 5A12.2
Take B3: the binding result in test [3], in test [4] and in test [5] was “binds” throughout.
